Results on eight substances are retold here after PMC2945414.

For assay [1], the target named is PKA (RIIα), regulatory subunit of type II cAMP-dependent protein kinase, residues 2-44. As to the kind of experiment: ITC. (In general: In ITC the heat of successive injections is recorded.)
In assay [2] the target is FLAG-tagged PKA (RIIα) (UniProt P13861). The experiment in a line: co-IP.
Assay [3] has as its target PKA (RIα) (Homo sapiens) (UniProt P10644). The note with it: cited from earlier work.
Assay [4] has as its target PKA (RIIα) (Homo sapiens) (UniProt P13861). The settings on record: cited from earlier work.

D-AKAP2, sequence (O43572 29-662): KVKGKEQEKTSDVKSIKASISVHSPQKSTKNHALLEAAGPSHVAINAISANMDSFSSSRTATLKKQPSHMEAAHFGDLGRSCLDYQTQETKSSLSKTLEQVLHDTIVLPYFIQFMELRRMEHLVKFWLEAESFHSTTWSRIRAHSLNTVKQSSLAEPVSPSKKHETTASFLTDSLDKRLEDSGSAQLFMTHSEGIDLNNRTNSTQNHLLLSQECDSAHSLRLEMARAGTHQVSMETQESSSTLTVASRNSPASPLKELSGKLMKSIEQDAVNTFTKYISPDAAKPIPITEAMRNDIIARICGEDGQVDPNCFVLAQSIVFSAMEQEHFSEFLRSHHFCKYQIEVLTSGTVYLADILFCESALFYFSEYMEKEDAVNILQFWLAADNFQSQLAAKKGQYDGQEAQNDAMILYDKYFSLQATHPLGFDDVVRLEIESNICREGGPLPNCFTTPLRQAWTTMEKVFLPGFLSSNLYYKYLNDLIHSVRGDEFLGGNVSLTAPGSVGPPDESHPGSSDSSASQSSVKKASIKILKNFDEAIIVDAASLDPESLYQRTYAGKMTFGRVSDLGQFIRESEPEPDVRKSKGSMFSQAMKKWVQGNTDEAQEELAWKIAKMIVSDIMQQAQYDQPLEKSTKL
PKA (RIα) (Homo sapiens), sequence (P10644 whole entry): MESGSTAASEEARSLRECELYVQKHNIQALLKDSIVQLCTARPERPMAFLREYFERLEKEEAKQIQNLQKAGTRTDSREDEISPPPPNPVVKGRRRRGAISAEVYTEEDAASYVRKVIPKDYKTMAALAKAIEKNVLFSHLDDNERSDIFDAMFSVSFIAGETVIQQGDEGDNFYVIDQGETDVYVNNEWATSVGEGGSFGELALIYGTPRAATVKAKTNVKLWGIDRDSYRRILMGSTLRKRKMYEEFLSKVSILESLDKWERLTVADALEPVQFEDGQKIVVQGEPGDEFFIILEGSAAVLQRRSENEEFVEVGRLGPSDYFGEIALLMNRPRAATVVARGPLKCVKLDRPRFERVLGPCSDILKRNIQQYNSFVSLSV

The term Kd denotes the free concentration of one partner at which half of the binding sites on the other are occupied at equilibrium, for simple one-to-one binding. The substance “Trx-NHR3(585-615) W594A (domain or fragment)” came in with a dissociation constant Kd in assay [1] of 909 nM.
For “AML1-ETO Nervy Homology Region 3 (NHR3) domain, residues A585-N654 (domain or fragment)”, in assay [1], the equilibrium dissociation constant (Kd) came to 67 nM and the stoichiometry N (NHR3 : PKA (RIIα) chains (1:2)) worked out at 0.5.
In the case of AML1-ETO V601A (natural protein), the fold decrease of the interaction relative to AML1-ETO in assay [2] is 2 fold.
With Trx-NHR3(585-654) (domain or fragment), the equilibrium dissociation constant (Kd) in assay [1] worked out at 128 nM.
In assay [1], “Trx-NHR3(585-615) V601A (domain or fragment)” returned an equilibrium dissociation constant (Kd) of 14000 nM.
As to “Trx-NHR3(585-615) V604A (domain or fragment)”, the dissociation constant (Kd) in assay [1] turned out to be 383 nM.
On the same count and under the same terms, for Trx-NHR3(585-615) (domain or fragment) the value was 256 nM.
Regarding D-AKAP2 (from UniProt O43572), the Kd in assay [3] was 48 nM; in assay [4], 2 nM.
